# From patent US20100166772A1, “ANTIGEN-BINDING PROTEINS TARGETING S. AUREUS ORF0657n” (priority 2007, published 2010)
# B1: mAb CS-D10: IgG1 antibody, light chain variable region SEQ ID NO: 5, heavy chain variable region SEQ ID NO: 6, lambda (antibody, V domains shown)
# VH: QVQLQESGPGLVKPSETLSLTCTVSGGSIRSSSYYWGWFRQTPGKGLEWLGNVFFSGSAYYNPSLKSRVTISIDTSENQSSLKLTSVTAADTAVYYCARPQAYSHDSSGHSPFDLWGRGTMVTVSS
# VL: QAVLTQPSSVSGAPGQRVTISCTGGSSNIGAGYDVHWYQQIPGTAPKLLIYGNSNRPSGVPDRFSGSKSGTSASLAITGLQAEDEADYYCQSYDSSLNGPVVFGGGTKVTVLG
# modifications: mAb CS-C10 heavy chain variable region; mAb CS-C10 light chain variable region
# Legend:
# [1] = test system: S. aureus; experiment: Opsonophagocytosis activity (OPA) assay with HL60_DMF cells; assay type: cell-based; details: FIGS. 4 and 5
# Description: An opsonophagocytosis activity (OPA) assay was developed to evaluate an antibody's ability to opsonophagocytose. The assay measures the ability of antibodies to bind and fix complement (C′) to the bacterial surface, which results in an increase in the level of phagocytosis of these bacteria by granulocytic effecter cells.
# ORF0657n is an iron regulated protein on the surface of S. aureus that appears to be involved in heme/Fe acquisition. […] For this assay the strain is iron starved to increase the expression of ORF0657n. This strain also lacks the ability to produce Protein A. Protein A can bind to the Fc portion of any IgG and the presence of this non-specifically bound antibody could interfere in the OPA reaction.
# HL60 cells were exposed to dimethylformamide (DMF) for five to six days to induce the cells to differentiate towards a more granulocytic phenotype. Next, 2% C′-sufficient gnotobiotic pig serum was added to the antibody bound cells. Finally, the antibody and C′ exposed cells were then labeled with the fluorescent chemical 5′, 6′-FAM-SE.
# After incubation of opsonized, fluorescently-labeled bacteria and unlabeled HL60_DMF cells, the level of phagocytosis was determined by measuring the percentage of HL60_DMF cells containing labeled bacteria by flow cytometry. […]
# [2] = test system: ORF0657n; details: Luminex binding assay
# Description: Construction of ORF0657n-bead—9.4×10^6 Radix maleimide microspheres (Georgetown, Tex.) were coupled to 750 μg ORF0657n-Se (ORF0657n containing carboxyl terminal cysteine group) at room temperature for 2 hours. Beads were washed 3 times with 1 ml PBS and then quenched with 1 M N-acetyl-L-cysteine (Sigma) for 2 hours at room temperature. Microspheres were washed 3× in PBS. Beads were enumerated and re-suspended at a final concentration of 500 microspheres/μl.
# Detection of Competition between CAT ScFvs and CAT mAbs—CAT scFvs were individually competed against the CAT antibodies in the Luminex cLIA assay. ScFvs were diluted 1:4, 1:8, 1:16 and 1:32 in PBS-TBN (0.05% Tween 20, 1% BSA and 0.05% sodium azide) and incubated with 5000 ORF0657n-coupled microspheres in a Multiscreen filter plate (Millipore) for 1 hour, 15 minutes at room temperature. The beads were then washed 3× with PBS with 0.05% Tween 20 (PBS/Tween20). The individual antibodies were diluted in PBS-TBN to a final concentration of 2 μg/ml and added to separate plates. […] Microspheres were re-suspended in PBS/Tween20 and the median fluorescent signal was read using a Bio-Plex luminometer (BioRad). ScFvs were considered competitive if the median fluorescent signal was reduced by at least 30% over the signal detected for non-competitive scFvs for at least two dilutions.
molecule,measurement,setting,value
B1,opsonic activity compared to isotype control,[1],higher opsonic activity compared to their IgG1 isotype control
same,mAbs compete for binding to the same epitope,[2],compete for binding to the same epitope
